In publication PMC5534430, “Crystal structure of a Pseudomonas malonate decarboxylase holoenzyme hetero-tetramer” (Nature Communications, 2017):

Tests used:
[1] = target: T1, MDC hetero-tetramer (MdcA active site) (Pseudomonas aeruginosa, UniProt Q9I6T0); assay: X-ray crystal structure, […] Å; format: binding; conditions: malonate from the crystallization solution; MdcA active site between domains AN and AC; apo MdcC
T1 construct: hybrid hetero-tetramer: full-length MdcA (1-554), MdcD, MdcE of P. aeruginosa and full-length MdcC of P. fluorescens without prosthetic group; only MdcE N-terminal His-tagged; E. coli Rosetta; 140 kD, 1:1:1:1; with Malonate decarboxylase acyl carrier protein (malonate decarboxylase subunit delta), Pseudomonas fluorescens; Malonate decarboxylase subunit beta; Malonate decarboxylase subunit gamma

[2] = target: MdcE subunit of malonate decarboxylase (P. aeruginosa), N-terminal His tag (P. aeruginosa); assay: SEC; gel filtration of the co-expressed, purified MdcD–MdcE complex
purified protein = substrate: CC(C)(COP(=O)(O)OP(=O)(O)OC[C@H]1O[C@@H](n2cnc3c(N)ncnc32)[C@H](O)[C@@H]1OP(=O)(O)O)[C@@H](O)C(=O)NCCC(=O)NCCSC(=O)CC(=O)O; assay: purified protein; format: biochemical, Pseudomonas aeruginosa; conditions: decarboxylation, 2.5 μM enzyme, 20 mM Tris pH 8.0, Hill equation fit, Hill coefficient 1.68 ± 0.13

T1 sequence (Q4K4F7 whole entry, one chain of several, further chain, the tested form may be a part): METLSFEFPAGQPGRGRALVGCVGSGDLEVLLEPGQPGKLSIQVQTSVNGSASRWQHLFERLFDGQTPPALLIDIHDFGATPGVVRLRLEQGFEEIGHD
T1 sequence (Q9I6T0 entry or part of it, one chain of several): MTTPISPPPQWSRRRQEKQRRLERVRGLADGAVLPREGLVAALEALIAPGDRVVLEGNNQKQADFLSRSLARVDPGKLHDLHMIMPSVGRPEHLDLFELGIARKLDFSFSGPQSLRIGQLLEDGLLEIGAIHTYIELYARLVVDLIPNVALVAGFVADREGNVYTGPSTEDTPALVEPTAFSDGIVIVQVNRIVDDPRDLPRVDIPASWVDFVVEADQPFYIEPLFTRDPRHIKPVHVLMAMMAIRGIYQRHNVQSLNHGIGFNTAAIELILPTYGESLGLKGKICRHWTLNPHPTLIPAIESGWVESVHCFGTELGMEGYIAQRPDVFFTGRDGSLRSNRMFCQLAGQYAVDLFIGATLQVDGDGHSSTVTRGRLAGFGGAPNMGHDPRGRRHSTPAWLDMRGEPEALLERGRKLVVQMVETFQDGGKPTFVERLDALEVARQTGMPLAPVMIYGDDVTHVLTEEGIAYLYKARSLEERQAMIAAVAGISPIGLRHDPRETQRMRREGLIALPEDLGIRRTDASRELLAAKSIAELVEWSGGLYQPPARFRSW

Molecule: O=C(O)CC(=O)O [malonate]
- X-ray crystal structure, 2.2 Å [1]: A malonate molecule from the crystallization solution is bound in the active site

B1: MdcD subunit of malonate decarboxylase (P. aeruginosa) (natural protein)
chain: MTDVARLLALRSFTELGARQRARALLDAGSFRELLDPFAGVQSPWLERQGIVPQADDGVVVARGLLDGQPAVLAAIEGAFQGGSLGEVSGAKIAGALELAAEDNRNGVPTRALLLLETGGVRLQEANLGLAAIAEIQAAIVDLQRYQPVVAVIAGPVGCFGGMSIAAGLCSYVLVTREARLGLNGPQVIEQEAGIAEYDSRDRPFIWSLTGGEQRFASGLADAYLADDLDEVRTSVLAYFAKGLPARPRCRRAEDYLRRLGDLDTAEQPDAAGVRRLYQGLGQGDAT
- stoichiometry N [2]: 1

B2: MdcD–MdcE complex (Pseudomonas aeruginosa PAO1) (protein)
chain 1: B1 chain
chain 2: MSQPFASRGLAWFQALAGSLAPRPGDPASLRVADAELDGYPVRFLAVVPDPDNPFPRARQGEVGLLEGWGLAAAVDEALEADREAPRKRALLAIVDVPSQAYGRREEALGIHQALAGAVDAYARARLAGHPLIGLLVGKAMSGAFLAHGYQANRLIALHDPGVMVHAMGKAAAARITLRSVEELEALAAKVPPMAYDIDSYASLGLLWRTLPVETVEVPSTADLVRVRTCLGEALADILGGPRDLGGRLGAANREASARVRRLLREQW
notes: full-length; N-terminal His-tagged MdcE (28 kD), untagged MdcD (30 kD); co-expressed in E. coli BL21Star (DE3) from pCDFDuet; 1:1 hetero-dimer in solution
- K0.5 (purified protein): 100 ± 5 µM
- kcat (purified protein): 2.3 ± 0.1 s⁻¹
